Test results reported in patent publication US20190127452A1.

Columns and labels:
Test in all cases: cell-based or functional assay
[1] = target: murine glutamine synthetase N-terminal mutant W60A N61A D63A S66A (mutGS-NT2) (murine) (UniProt P15105)
[2] = target: murine glutamine synthetase N-terminal mutant W60A N61A D63A S66A D76A (mutGS-NT3) (murine) (UniProt P15105)
[3] = target: murine glutamine synthetase N-terminal mutant W60A N61A D63A (mutGS-NT1) (murine) (UniProt P15105)
[4] = target: murine glutamine synthetase N-terminal mutant W60A N61A D63R S66A (mutGS-NT4) (murine) (UniProt P15105)

Measured: recovery of viability of CHO-K1 GS knockout pools in glutamine-free medium

murine glutamine synthetase C-terminal mutant E134A E136A E196A E203A (mutGS-CT1) (from UniProt P15105 1-373)
90 % viability: all assays above

murine glutamine synthetase C-terminal mutant N248A H253A N255A (mutGS-CT2) (from UniProt P15105 1-373)
90 % viability: all assays above
